What was measured:
[1] = tested on: F2-Arg finger 3 Asp2Ala D2A in finger 3 (helix position 2) (Artificial Sequence); details: phage ELISA; PBS, 50 uM ZnCl2, 20 C
[2] = tested on: Zif268 finger 3 Asp2Ala D2A in finger 3 (helix position 2); details: phage ELISA; PBS, 50 uM ZnCl2, 20 C

Sequence | binding signal (fold lower affinity than parent F2-Arg) [1] | binding signal (fold lower affinity than wild type) [2]
GCGGTGGCG (double strand) [F2-Arg consensus site] | 4 | 
GCGTGGGCG (double strand) [Zif268 consensus site] |  | 4
